This note sets out measurements from publication PMC2645691.

The target in this assay is FLAG-tagged MAGI-1L (C. elegans). Description: co-IP; COS-7 cells cotransfected with FLAG- and GST-tagged proteins; lysis in modified RIPA (50 mM Tris-HCl pH 7.4, 125 mM NaCl, 0.25% NP-40); anti-FLAG beads; blots with anti-FLAG and anti-GST, films quantified against input.

Substitutions are numbered along the chain they refer to.

B1: GST fused to the GLR-2 cytosolic domain (GST::GLR-2) (domain or fragment)
chain: VEFLFRKNKENREKERNRMRSSRPLKPGILASCERAKQKQLQNRRTKSEEVSTPRSTLF
On to B1, for which the percent coimmunoprecipitated was 10%.

B2: GST fused to the GLR-2 cytosolic domain with a mutated PDZ recognition motif (GST::GLR-2AAA) (domain or fragment)
chain: B1 chain with T57A, L58A, F59A
The molecule B2 came in with a percent coimmunoprecipitated of 0 to 2%.
